What was measured:
Experiment in all cases: peptide microarray probed with GST protein
Details in all cases: reference: unphosphorylated Y124 15-mer; sites Y124
[1] = target: GRB2 1-217 (UniProt P62993)
[2] = target: PIK3R3 (p55γ) 1-461 (UniProt Q92569)
[3] = target: GRB2 SH2, 75-160 (UniProt P62993)

binding against the reference [1]: gained
binding against the reference [2]: gained
binding against the reference [3]: gained
Substance: TSPAN2 (tetraspanin 2) 15-mers, each centred on one tyrosine (from UniProt O60636) pY124 15-mer
